Source: paper PMC10039045

Target: enhanced GFP (EGFP)

t1/2 of the normalized PCC increase between mCherry-eDHFR and EGFP-mito over time in live HeLa cells with 24 uM cRGT: 7.26 min
Substance: E. coli dihydrofolate reductase (eDHFR) (from UniProt P0ABQ4 1-159) (enzyme)
